Data: patent US20250115671A1 (BEIGENE, published 2025)
One block for each binder: values may come before it.

Legend:
huCCR8 L269A [1] = target: T1, huCCR8 L269A (human, UniProt P51685 1-355); test: flow cytometry, transfected Expi293 cells, serial dilution from 200 nM
T1 construct: Point mutant on transfected Expi293 cells
Procedure: (§1) In comparison, the 10A11 reference antibody recognizes D14, Y17, D19 on the N-terminal domain of huCCR8 as the mutation on these sites totally abolished the binding, indicating no overlap in epitope between the reference antibody 10A11 and hu305-5W-3a. To further confirm the critical roles of these sites for binding, the transfected Expi293 cells were stained with a serial dilution of hu305-5W-3a from 200 nM followed by detection with Alexa Fluor 647 Rabbit Anti-Human IgG (Cat.: 309-605-008 Jackson ImmunoResearch) to obtain a full binding curve. […] D178 and M266 are considered as 2nd tier epitopes having media impact on Hu305-5W-3a binding. Substitution them with Ala will lead to ˜3 folds decrease of EC50.

human CCR8 [2] = target: T2, human CCR8 (human, UniProt P51685 1-355); test: as above
T2 construct: Full length; also called huCCR8; C-C motif chemokine receptor 8
Procedure: as §1

huCCR8 E177A [3] = target: T3, huCCR8 E177A (human, UniProt P51685 1-355); test: as above
T3 construct: Point mutant on transfected Expi293 cells
Procedure: as §1

huCCR8 Y172A [4] = target: T4, huCCR8 Y172A (human, UniProt P51685 1-355); test: as above
T4 construct: Point mutant on transfected Expi293 cells
Procedure: as §1

huCCR8 D178A [5] = target: T5, huCCR8 D178A (human, UniProt P51685 1-355); test: as above
T5 construct: Point mutant on transfected Expi293 cells
Procedure: as §1

huCCR8 D26A [6] = target: T6, huCCR8 D26A (human, UniProt P51685 1-355); test: as above
T6 construct: Point mutant on transfected Expi293 cells
Procedure: as §1

huCCR8 M266A [7] = target: T7, huCCR8 M266A (human, UniProt P51685 1-355); test: as above
T7 construct: Point mutant on transfected Expi293 cells
Procedure: as §1

huCCR8 L269A [8] = target: T1, huCCR8 L269A; test: flow cytometry, transfected Expi293 cells, antibody at 50, 10 and 1 nM
Procedure: (§2) To more precisely determine the specific amino acid residues that are crucial for antibody binding to human CCR8, point mutations were introduced to ECL2, ECL3 and N-terminal regions of human CCR8, as shown in the first column of Table 19. To evaluate the impact of each mutant, humanized anti-CCR8 antibody hu305-5W-3a was used to react with transfected Expi293 cells as described above with the concentration of 50 nM, 10 nM and 1 nM (results summarized in Table 19). The critical amino acids for hu305-5W-3a binding are marked with an “X” indicating a loss of >50% compared with wild type huCCR8, which is considered significant.

huCCR8 E177A [9] = target: T3, huCCR8 E177A; test: as above
Procedure: as §2

huCCR8 Y172A [10] = target: T4, huCCR8 Y172A; test: as above
Procedure: as §2

huCCR8 D178A [11] = target: T5, huCCR8 D178A; test: as above
Procedure: as §2

huCCR8 D26A [12] = target: T6, huCCR8 D26A; test: as above
Procedure: as §2

huCCR8 M266A [13] = target: T7, huCCR8 M266A; test: as above
Procedure: as §2

Cynomolgus Monkey CCR8 = target: T8, Cynomolgus Monkey CCR8 (cynomolgus monkey, UniProt O97665 1-356 (rhesus entry)); test: flow cytometry, 293T-cynoCCR8 cells
T8 construct: also called cyno CCR8; cynoCCR8
Excerpt: (§3) After washing twice with FACS buffer, cells were resuspended with FACS buffer and acquired on a Beckton Dickinson LSR Fortessa™. Titration curves were generated using sigmoid dose-response of nonlinear fit from GraphPad, and the EC50s of representative antibodies are shown in Table 2.

human CCR8 [14] = target: T2, human CCR8; test: flow cytometry, 293T-huCCR8 cells
Excerpt: as §3

mouse CCR8 = target: T9, mouse CCR8 (mouse, UniProt P56484 1-353); test: flow cytometry on transfected Expi293 cells, serial dilution
T9 construct: Full length, transiently expressed on Expi293 cells; also called muCCR8; CCR8-mo8
T9 sequence: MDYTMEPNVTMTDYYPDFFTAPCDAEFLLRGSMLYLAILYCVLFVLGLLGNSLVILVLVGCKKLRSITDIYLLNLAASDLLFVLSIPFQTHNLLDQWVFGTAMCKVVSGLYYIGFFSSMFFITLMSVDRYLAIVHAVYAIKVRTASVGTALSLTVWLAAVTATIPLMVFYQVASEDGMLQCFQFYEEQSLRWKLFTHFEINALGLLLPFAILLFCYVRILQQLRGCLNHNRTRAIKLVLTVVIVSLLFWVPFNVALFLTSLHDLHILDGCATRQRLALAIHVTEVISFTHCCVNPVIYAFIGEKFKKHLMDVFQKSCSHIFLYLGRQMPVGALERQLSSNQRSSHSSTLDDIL
Procedure: The plasmids containing these chimeric CCR8 constructs, and human CCR8 (CCR8-hu8) and mouse CCR8 (CCR8-mo8) as control, were used to transfect Expi293™ cells for transient protein expression, after which cells were incubated with a serial dilution of the purified Ch305 as well as a reference antibody 10A11 from Shionogi (US 2022/0064312 A1). The binding of each construct was evaluated detection with Alexa Fluor 647 Rabbit Anti-Human IgG (Cat.: 309-605-008 Jackson ImmunoResearch). […] In addition, replacing the human CCR8 N-terminal region with mouse CCR8 N-terminal (CCR8_Ch1) also weakly impairs the affinity, which means human CCR8 N-terminal contributes to the binding activity of human CCR8 with Ch305. In the meanwhile, substituting mouse CCR8 N-terminal with human CCR8 N-terminal (CCR8_Ch5) rescues the binding activity of murine CCR8 with Ch305 to some extent much weaker than the binding activity of wild type human CCR8 to Ch305, which means human CCR8 N-terminal contributes but weakly or partly to the binding activity of human CCR8 with Ch305. […] In comparison, the reference antibody 10A11 binds to the N-terminal region of CCR8 only and it has no binding to ECL1, ECL2 and ECL3, that is, the epitope of 10A11 on human CCR8 locates only on N-terminal of human CCR8 (FIG. 9B).

human CCR8 [15] = target: T2, human CCR8; test: cell-based or functional assay
human CCR8 [16] = target: T2, human CCR8; test: flow cytometry, Jurkat-human CCR8 cells
Procedure: To evaluate the binding activity of anti-CCR8 antibodies to bind CCR8 expressed on living cells, Jurkat cells were engineered to over-express human CCR8. Jurkat-human CCR8 cells were seeded in 96-well plate and incubated with a series of dilutions of anti-CCR8 antibodies. Goat anti-human IgG was used as secondary antibody to detect antibody binding to the cell surface. EC50 values for dose-dependent binding to human CCR8 were determined by fitting the dose-response data to the four-parameter logistic model with GraphPad Prism. As shown in Table 4 and FIG. 3 the CCR8 antibodies had high binding affinity to human CCR8.

[17] = target: T10, human CCR8 N-terminal domain-mouse Fc tag fusion protein (human (CCR8 part), mouse IgG2a Fc); test: ELISA, plate coated with human CCR8 N-terminal domain-Fc fusion
T10 construct: also called huCCR8-N-mIgG2a; human CCR8 N-terminal protein
T10 chain: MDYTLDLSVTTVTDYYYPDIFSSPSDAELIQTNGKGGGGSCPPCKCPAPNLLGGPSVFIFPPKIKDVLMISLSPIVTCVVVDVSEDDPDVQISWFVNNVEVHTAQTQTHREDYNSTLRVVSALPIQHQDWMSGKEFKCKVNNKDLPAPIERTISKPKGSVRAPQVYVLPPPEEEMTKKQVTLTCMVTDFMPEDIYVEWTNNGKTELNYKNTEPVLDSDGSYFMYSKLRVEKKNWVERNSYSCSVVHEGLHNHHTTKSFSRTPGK
Procedure: To determine whether anti-CCR8 antibodies bind to the N-terminal domain of human CCR8, ELISA plates were coated with human CCR8 N-terminal domain-mouse Fc tag fusion protein (SEQ ID NO: 28 and 29) overnight at 4° C. After washing and blocking, serially diluted anti-CCR8 antibodies were added to plates and incubated for 1 hour at room temperature. After washing, diluted HRP goat anti-human IgG Fc or HRP goat anti-mouse kappa chain (for 433H) secondary antibodies were added to plates and incubated for 45 minutes at room temperature. After washing, TMB substrate was added to plates for developing and then stopped by adding TMB substrate stop solution. The absorbance was read at 450 nm using a plate reader. […] It is a non CCR8 N-terminal loop binder.

T8 sequence (O97665 other isoform, or with tags, fused parts or gaps): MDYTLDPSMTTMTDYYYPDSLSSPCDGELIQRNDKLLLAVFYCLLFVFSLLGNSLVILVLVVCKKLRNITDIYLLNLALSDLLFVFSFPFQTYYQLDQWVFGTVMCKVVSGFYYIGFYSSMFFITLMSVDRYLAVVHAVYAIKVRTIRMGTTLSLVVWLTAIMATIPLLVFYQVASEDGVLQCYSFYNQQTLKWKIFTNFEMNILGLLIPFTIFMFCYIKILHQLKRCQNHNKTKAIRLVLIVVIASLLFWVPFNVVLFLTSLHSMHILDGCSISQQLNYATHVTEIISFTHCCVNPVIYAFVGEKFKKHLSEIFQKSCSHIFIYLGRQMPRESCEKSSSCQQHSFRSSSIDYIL

EC50 (huCCR8 L269A [1]): 27.4 nM
fold change of EC50 against wild type huCCR8 (huCCR8 L269A [1]): > 4 fold
EC50 (human CCR8 [2]): 6.3 nM
EC50 (huCCR8 E177A [3]): 25.4 nM
fold change of EC50 against wild type huCCR8 (huCCR8 E177A [3]): > 4 fold
EC50 (huCCR8 Y172A [4]): 26.3 nM
fold change of EC50 against wild type huCCR8 (huCCR8 Y172A [4]): > 4 fold
EC50 (huCCR8 D178A [5]): 18.3 nM
fold change of EC50 against wild type huCCR8 (huCCR8 D178A [5]): ~3 fold
EC50 (huCCR8 D26A [6]): 16.8 nM
fold change of EC50 against wild type huCCR8 (huCCR8 D26A [6]): > 2 fold
EC50 (huCCR8 M266A [7]): 19.4 nM
fold change of EC50 against wild type huCCR8 (huCCR8 M266A [7]): ~3 fold
loss of binding compared with wild type huCCR8 (huCCR8 L269A [8]): > 50%
loss of binding compared with wild type huCCR8 (huCCR8 E177A [9]): > 50%
loss of binding compared with wild type huCCR8 (huCCR8 Y172A [10]): > 50%
loss of binding compared with wild type huCCR8 (huCCR8 D178A [11]): > 50%
loss of binding compared with wild type huCCR8 (huCCR8 D26A [12]): > 50%
loss of binding compared with wild type huCCR8 (huCCR8 M266A [13]): > 50%
B1: hu305-5W-3a (antibody, V domains shown)
VH: QVQLKQSGPGLVKPSETLSLTCTVSGFSLAVYGVHWVRQPPGKGLEWLGVIWRGGTTDYNPSLKSRLTFSKDSSKSQVSLKLSSVTAADTAVYYCAKNRVTTVVAPNFYAMDYWGQGTLVTVSS
VL: DIVMTQSPDSLAVSLGERATINCKSSQSLLYSGNQKNYLAWYQQKPGQPPKLLIYWASTRKSGVPDRFSGSGSGTDFTLTISSLKAEDVAVYYCQQYYTYPLTFGQGTRLEIK

EC50 (Cynomolgus Monkey CCR8): 4.1 nM
EC50 (human CCR8 [14]): 3.67 nM
binding result (mouse CCR8): no binding
IC50 (nM), ligand blocking activity (PathHunter beta-arrestin) (human CCR8 [15]): 5.9 nM
EC50 (human CCR8 [16]): 9.37 nM
EC50 [17]: 5.01 nM
B2: Ch305 (antibody, V domains shown)
VH: QVQMKQSGPSLVQPSQSLSITCTVSGFSLTSYGVHWVRQSPGKGLEWLGVIWRGGTTDYNAAFMSRLSFTKDSSKSQVFFKLNSLQADDTAIYYCAKNRVTTVVAPNFYAMDYWGQGTSVTVSS
VL: DIVMTQSPSSLAVSVGEKVTMSCKSSQSLLYSGNQKNYLAWYQQKPGQSPKLLIYWASTRKSGVPDRLTGSGSGTDFTLTISSVKAEDLAAYYCQQYYTYPLTFGAGTRLEIK
